Experiments:
Assay type in all cases: in vitro ADME
[1] = Long-term stability in artificial plasma at −80°C; conditions: triplicate, 2D-LC-MS/MS
Experimental: (§1) The stability tests of all insulins were performed at two concentration levels (193 and 7752 pg/mL). One set of tests was performed with artificial plasma and the other set with artificial plasma containing 1% PIC. Each concentration level was tested in triplicate. These QC samples were quantified using an artificial plasma calibration curve without PIC, and the obtained concentrations were compared with the nominal concentrations of the low quality control (LQC) and high quality control (HQC), which were set to 100%. To evaluate the stability of insulins in artificial plasma containing 1% PIC, we considered the concentration measured at time zero as the baseline (100%). All subsequent changes in concentration were calculated relative to this initial measurement.
(§2) Short‐term stability, long‐term stability, and freeze‐thaw stability were evaluated in this study. LQC and HQC samples were stored at room temperature and in a refrigerator for 3, 6, and 24 h to assess short‐term (bench‐top) stability and at 4°C in the autosampler for 24 h to assess re‐injection stability.

[2] = Long-term stability in artificial plasma at −20°C; conditions: triplicate, 2D-LC-MS/MS
Experimental: as §1, §2

[3] = Freeze-thaw stability in artificial plasma after storage at −80°C; conditions: stored at −80°C, triplicate, 2D-LC-MS/MS; for 24 h, change (%): cycle at 24 h; for 48 h, change (%): cycle at 48 h; for 72 h, change (%): cycle at 72 h
Experimental: as §1, §2

[4] = Autosampler (re-injection) stability at 4°C for 24 h; conditions: autosampler (AS) 4°C, triplicate, 2D-LC-MS/MS
Experimental: as §1, §2

[5] = artificial plasma (BZ273) with 1% PIC, 193 pg/mL, % of concentration at time zero
[6] = artificial plasma (BZ273) with 1% PIC, 7752 pg/mL, % of concentration at time zero
[7] = artificial plasma (BZ273) without PIC, 193 pg/mL, % of nominal concentration
[8] = artificial plasma (BZ273) without PIC, 7752 pg/mL, % of nominal concentration
[9] = artificial plasma (BZ273) without PIC, 7752 pg/mL, % of nominal concentration, listed as Insulin aspart
[10] = extracted samples from artificial plasma with 1% PIC, 7752 pg/mL, % of concentration at time zero (=100%)
[11] = extracted samples from artificial plasma without PIC, 193 pg/mL, % of nominal concentration (=100%)
[12] = extracted samples from artificial plasma with 1% PIC, 193 pg/mL, % of concentration at time zero (=100%)
[13] = extracted samples from artificial plasma without PIC, 7752 pg/mL, % of nominal concentration (=100%)

insulin aspart
1 week, change (%) [1, 5]: 116.5%
1 week, change (%) [1, 6]: 123.4%
1 week, change (%) [1, 7]: 106.0%
1 week, change (%) [1, 8]: 104.7%
2 weeks, change (%) [1, 5]: 99.6%
2 weeks, change (%) [1, 6]: 106.6%
2 weeks, change (%) [1, 8]: 97.2%
3 weeks, change (%) [1, 5]: 93.4%
3 weeks, change (%) [1, 6]: 108.9%
3 weeks, change (%) [1, 7]: 97.8%
3 weeks, change (%) [1, 8]: 92.8%
1 week, change (%) [2, 5]: 70.7%
1 week, change (%) [2, 6]: 72.2%
1 week, change (%) [2, 7]: 105.6%
1 week, change (%) [2, 8]: 104.3%
2 weeks, change (%) [2, 5]: 58.4%
2 weeks, change (%) [2, 6]: 62.5%
2 weeks, change (%) [2, 7]: 107.3%
2 weeks, change (%) [2, 8]: 100.2%
3 weeks, change (%) [2, 5]: 39.5%
3 weeks, change (%) [2, 6]: 35.8%
3 weeks, change (%) [2, 7]: 101.4%
3 weeks, change (%) [2, 8]: 95.2%
24 h, change (%) [3, 5]: 111.6%
24 h, change (%) [3, 6]: 117.4%
24 h, change (%) [3, 7]: 90.4%
24 h, change (%) [3, 8]: 100.00%
24 h, change (%) [3, 9]: 100.0%
48 h, change (%) [3, 5]: 111.6%
48 h, change (%) [3, 6]: 115.5%
48 h, change (%) [3, 7]: 98.1%
72 h, change (%) [3, 5]: 93.7%
72 h, change (%) [3, 6]: 99.8%
72 h, change (%) [3, 7]: 85.7%
72 h, change (%) [3, 8]: 92.10%
72 h, change (%) [3, 9]: 92.1%
24 h AS, change (%) [4, 10]: 125.7%
24 h AS, change (%) [4, 11]: 92.6%

glulisine
1 week, change (%) [1, 6]: 88.1%
1 week, change (%) [1, 7]: 103.5%
1 week, change (%) [1, 8]: 84.5%
2 weeks, change (%) [1, 6]: 117.9%
2 weeks, change (%) [1, 7]: 102.7%
2 weeks, change (%) [1, 8]: 83.7%
3 weeks, change (%) [1, 5]: 79.1%
3 weeks, change (%) [1, 6]: 95.2%
3 weeks, change (%) [1, 7]: 98.8%
3 weeks, change (%) [1, 8]: 75.6%
1 week, change (%) [2, 5]: 51.7%
1 week, change (%) [2, 6]: 55.6%
1 week, change (%) [2, 7]: 99.7%
1 week, change (%) [2, 8]: 86.2%
2 weeks, change (%) [2, 5]: 36.7%
2 weeks, change (%) [2, 6]: 143.0%
2 weeks, change (%) [2, 8]: 84.0%
3 weeks, change (%) [2, 5]: 29.2%
3 weeks, change (%) [2, 6]: 31.5%
3 weeks, change (%) [2, 7]: 84.8%
3 weeks, change (%) [2, 8]: 79.8%
24 h, change (%) [3, 5]: 79.0%
24 h, change (%) [3, 6]: 93.1%
24 h, change (%) [3, 7]: 99.0%
24 h, change (%) [3, 8]: 92.3%
48 h, change (%) [3, 5]: 106.9%
48 h, change (%) [3, 6]: 119.5%
48 h, change (%) [3, 8]: 95.2%
72 h, change (%) [3, 5]: 92.4%
72 h, change (%) [3, 6]: 95.0%
72 h, change (%) [3, 7]: 106.5%
72 h, change (%) [3, 8]: 81.1%
24 h AS, change (%) [4, 12]: 93.2%
24 h AS, change (%) [4, 11]: 97.6%
24 h AS, change (%) [4, 13]: 82.2%

detemir
1 week, change (%) [1, 5]: <LLOQ
1 week, change (%) [1, 6]: 139.1%
1 week, change (%) [1, 7]: 64.2%
1 week, change (%) [1, 8]: 63.2%
2 weeks, change (%) [1, 5]: <LLOQ
2 weeks, change (%) [1, 6]: 173.5%
2 weeks, change (%) [1, 7]: 50.5%
2 weeks, change (%) [1, 8]: 54.7%
3 weeks, change (%) [1, 5]: <LLOQ
3 weeks, change (%) ([1]; artificial plasma (BZ273) with 1% PIC, 193 pg/mL, % of concentration at time zero, listed as Insulin detemir): < LLOQ
3 weeks, change (%) [1, 6]: 154.5%
3 weeks, change (%) [1, 7]: 34.1%
3 weeks, change (%) [1, 8]: 49.4%
1 week, change (%) [2, 5]: <LLOQ
1 week, change (%) [2, 6]: 71.2%
1 week, change (%) [2, 7]: <LLOQ
1 week, change (%) [2, 8]: 27.0%
2 weeks, change (%) [2, 5]: <LLOQ
2 weeks, change (%) [2, 6]: 71.8%
2 weeks, change (%) [2, 7]: <LLOQ
2 weeks, change (%) [2, 8]: 24.8%
3 weeks, change (%) [2, 5]: <LLOQ
3 weeks, change (%) [2, 6]: 62.2%
3 weeks, change (%) [2, 7]: <LLOQ
3 weeks, change (%) [2, 8]: 21.9%
24 h, change (%) [3, 5]: 115.2%
24 h, change (%) [3, 6]: 375.0%
24 h, change (%) [3, 7]: 253.5%
24 h, change (%) [3, 8]: 168.5%
48 h, change (%) [3, 5]: 140.6%
48 h, change (%) [3, 6]: 344.2%
48 h, change (%) [3, 7]: 349.6%
48 h, change (%) [3, 8]: 195.4%
72 h, change (%) [3, 5]: 116.7%
72 h, change (%) [3, 6]: 285.9%
72 h, change (%) [3, 7]: 243.7%
72 h, change (%) [3, 8]: 161.5%
24 h AS, change (%) [4, 12]: <LLOQ
24 h AS, change (%) [4, 10]: 66.0%
24 h AS, change (%) [4, 11]: 98.4%
24 h AS, change (%) [4, 13]: 93.7%

Reference: PMC11811267 (Journal of Separation Science, 2025)
